This note sets out measurements from a protein production outcome set (Wang et al. 2014).

This data set is described as follows: label from the status in PepcDB records.

“LKASGVQAQMAKQQEQDPTNLYISNLPLSMDEQELENMLKPFGQVISTRILRDSSGTSRGVGFARMESTEKCEAVIGHFNGKFIKTPPGVSAPTEPLLCKF”: the protein production result is “not failed”.
Regarding “LKDIETACKLLNITADPMDWSPSNVQKWLLWTEHQYRLPPMGKAFQELAGKELCAMSEEQFRQRSPLGGDVLHAHLDIWKSAA”, the protein production result is “not failed”.
Next, “LKRDFIILGNGPRLQNSTYQCKHCDSKLQSTAELTSHLNIHNEEFQKRAKRQERRKQLLSKQKYADGAFADFKQE”: “not failed”.
The entry for “LLALWVSAGELMAASKGAAGFTKATQEVSSYQTPVSNLMKAIAAVIVLVGAFNVYFKMQNGDQDVKKTIMLTIGGCIAFIALSEALPLFF” is “failed”.
Next, “LLARALYDNCPDCSDELAFSRGDILTILEQHVPESEGWWKCLLHGRQGLAPANRLQIL”: “not failed”; “LLGLGVGPGDPELITLKALRLLRAAPVVGYFVAKGKKGNAFGIIEAHLDQAQVRLPLVYPVTTEKLEPPLCYETIISDFYDTAAEQLAAHLDAGRDVAVICEGDPFFYGSYMYLHDRLATRYESEVVPGVCSMLGGAAVLGAPLVYRNQSLSVLSGVLPEEELRRRLADADAAVVMKLGRNFDKVRRVLVELGLERRALYVERATMANQRIVPLERVEPMASPYFSLIVVPGDKWQGGAGGE”: “failed”; “LLSLALAALMEDVHAHSGAVYLLAPDEPVLEMAVMAGLPRAFAAPWERVGLSAPLPVAEAVRERRLVWVNGEEQMAGRYPRVAVVLPYSFALAALPLACADTVYGALFVTWPDSHPPELSSRERDQLGVACDRLATRLAHA”: “failed”.
For “LNDALLLMEANIEDPLTTDEIAGLVGVSRRQLERLFRQYLGAMPSKYYLNLRLLKARTQLQRTSKSVVQVSLACGFSSAAHFSNAYRERFGVTPREDRRA”, the protein production entry is given as “not failed”.
Next, “LNLPYDEHADAWTQVKKALAAGKRTHKPTLLVFGANWCTDCRALDKSLRNQKNTALIAKHFEVVKIDVGNFDRNLELSQAYGDPIQDGIPAVVVVNSDGKVRYTTKGGELANARKMSDQGIYDFFAKITETRGV”: “failed”; “LNTNQLFAYLNRGDIAEFKFSPLFTTLFFPNVATFSTQNIMLDTLDIEEVTMSAFCSPMVGSQVQRDKGYETSTIKPGYMKPKHEIDPTKTIMRMAGEDPAQLNDPTYRRMRLITGNMRRQINAIKARVEWLAVNAVTTGKNIIEGEGIERYEIDWKIPEKNIIEQADGKKWSEQDKETHYPIYDIELYADQAGCPANVMIMGAEVWRTLRSFKKFRELYDLSRGSESAAELACKNLGEVVSFKGYLGDLALIVYSGKYTDSDGTEKYFLEPDLLVLGNTNNKGLVAYGAIMDQEAVRTGATQNMFYPKNWIEDGDPAIEYVQTHSAPQPVPADIRKFVTVKIA”: “failed”; “LPRQIAATVDLNSHGAGEHLDEQVIHCAHDLALQCNAELHLLHVCDAAKTHIADFGAGTVTMPGFDSSVRTAQRAAFNRLGDHHQIPLERRHFLEGAAIRAIAQFVGHNRVDVIVMGSHRHDAMQTFLGGTTAHVLEHPLCNVLAIKAVR”: “failed”.
Next, “LPVILWFLAHGLDVVFIDYPRDPATGVQYYCDSIAAAKSLLDAVLASRQLGLSPEAPLGLWGFSQGGGATGWAAQLQDYAPDVRPKAAVVGAPPVDLFRVLDTVDGGLLTGVIAYAIAGLAVNSSEMFEEIMSVLNERGVSDVLKNITSCAGGSLLASGYSSSRGWTHQGTPLADILDDLPLVVAEFGKQKLGRVAPEIPVLLWGSKNDDVIPIDPIRELRDSWADKGTPLTWHESQAPRVPGRTGLNHFGPYFRNLEKYSGWLIDHL”: “failed”.
The entry for “LQQFLDALASSPEKIEFETTMAVIEDNYDFTPAAFTNGNTQNDANENNGSCKIFAFGLLNALDKEATLACFGRFYREDVLLHPENNDHQNIRNFMVTGWEGIQFETSALTAK” is “not failed”.
Regarding “LRASEIMNRTLDLQIIMDDLLNLLLKEFKLDLAVIRLVDEKGVLRVRSYSGKGIAGIAGKDWEPEIETYIGEAFLSNRLQFVNDTQYMTKPLTRELMQKEGIKSFAHIPISRKGEPPFGILSVFSRTIVGLFNEPFLNLLESLAGQLAQAVKIVTEMEAKEREREEKERILLENA”, the protein production result was “not failed”.
Regarding “LRGTHSQLRCVLNAATQVAIIATDLRGVISTFNAGAEQMLGYSSSEAVGHLTLESLHLPEELESWAQSLTQRYGKAIPVSQAMLVEEGMAGGHEAREWTLVRRDGSHLQVNMLATPVLDDQGLWIGHLAICIDITERKRVHEA”, the protein production entry is “failed”.
The entry for “LRTIVELMENNLEETLSLDQLAAYSGRSRRQIDRLFQAQLGTSPRRYYMELRITKSRRLLQYSDLSVMEVAVACGFVSVSHFSKCYAAYFGYPPSREQRLGE” is “failed”; for “LSASEERFQLAVSGASAGLWDWNPKTGAMYLSPHFKKIMGYEDHELPDEITGHRESIHPDDRARVLAALKAHLEHRDTYDVEYRVRTRSGDFRWIQSRGQALWNSAGEPYRMVGWIMDVTDRKRDEDALRVSREELRRL” it is “not failed”; for “LTPLAQMAEGMERQDVSIDKWTLHAKQNLSLTEKEFYQKVQRLKQEYRQYDWVIAREDKMIKAIGTYTDKKNRTSFRLQLVTTLKKHNPTSYLLYEQMSLETPDSWNDTYEQFERETLGIFQEKVVIFTCLNGHLDDNMNIVLQKKANQLLNEFQARSVEHVVEPNFVSISAFTDEWEEYIMTSKHKMNLQIALRSAGMGGKHTVTVGTPIVTTEY” it is “not failed”.
For the sequence “LTTTSADYIGPIVEHQYLQWDNWPRLGEILRSEKPLAFQQESRFAHDTRARDAFNDAMVRLSQPMVDVVSELGVFARARTVIDLAGGHGTYLAQVLRRHPQLTGQIWDLPTTRDAARKTIHAHDLGGRVEFFEKNLLDARNFEGGAADVVMLNDCLHYFDAREAREVIGHAAGLVKPGGALLILTMTMNDDRVTPALSADFSLHMMVNTNHGELHPTPWIAGVVRDAGLAVGERSIGRYTLLIGQRSSGEV”, the protein production entry is given as “failed”.
The entry for “LVAVDEFIRRHFSQPVTMAELTGIAGMSAAQLERYCKKVFHLSPRQMIHKARLEHAHRLLHADMAITEVALRCGYADHSAFSRQFKALTGLTPRQYRQQ” is “failed”; for “LVKETACAVVDKLKSGEVTPIEVLDVLEERIAEVDGAINALPTLCFDRARGHAAELMKKPPAERGLLAGLPVPIKDLTAVAGVLTTQGSPIYKDNVPARSDLMVEHLEGNGGVVYAKSNTPEFGAGANTFNEVFGATRNPWDLSRSAAGSSGGAAAALASGTAWLAHGSDMGGSLRNPASFCGIVGLRPSFGRVAHTPAAKIDRNLGVQGPMARNVEDVALLLDAMSGEYAADPLSIPSPATSFLAAARSRQKPLRVAYSPDLGITPVDPEVAAVTRKAAERFAEAGVIVEQAQPDLSEAHECFQALRAFDFAISKADLLRTKRDLLKPEVIWNIEQGLKLSVDDLAKAEAQRVAMTARTIEFFKTYDLLLCPATITAPFPVEQRYLAECNGHTFGNYVEWLGIVYAITLVCCPALSLPCGFTATGLPIGLQMVARPRNEAGLLAGAALLEDILGLKSTTP” it is “failed”; for “LVVSEARFRAAIDAVQGVLWTNNASGKMVGEQPGWSALTGQIREEYEGVGWTKVVHPDDVEPTLSAWLAAVAEKRTFEFEHRVRRHDGVWRDCLIRAVPLIGDNGEIREWVGVHTDISEQKAAAEK” it is “failed”.
Next, “MAAAGEEYSSDKIEERSLAAIDSMIDPDISGPMRHIVVKAIHAAGDFAIAPLIRYSDGFFKSMLAKLKEGCTIICDSEMVRAGIYSRPVLERNRVVCYLNDVRSKEMADVNGITRSAAGIRIAMQDHRNSVIVIGNAPTALLEAMRMIEENGWYDIPIVGIPVGFINASKAKEGLVSSHIEYISVEGHRGGSPIAASIVNGFGRFLA”: “not failed”; “MAAAMVPGRSESWERGEPGRPALYFCGSIRGGREDRTLYERIVSRLRRFGTVLTEHVAAAELGARGEEAAGGDRLIHEQDLEWLQQADVVVAEVTQPSLGVGYELGRAVAFNKRILCLFRPQSGRVLSAMIRGAADGSRFQVWDYEEGEVEALLDRYFEADPPGQVAASPDPTT”: “failed”.
